Data reported in patent publication US20210147519A1 (Regeneron, published 2021).

Tests used:
[1] = molecular target: T1, native human complement component C1q protein purified from human serum (Quidel) (human, UniProt P02745 23-245; P02746 28-253; P02747 29-245); experiment: cell-based or functional assay
[2] = molecular target: T1, native human complement component C1q …; experiment: cell-based or functional assay; remark: listed apart in the source
[3] = molecular target: T1, native human complement component C1q …; experiment: cell-based or functional assay; remark: listed apart in the source
[4] = molecular target: T2, IsdB expressed on the surface of S. aureus Wood 46 (Staphylococcus aureus); experiment: ELISA on plate-coated S. aureus Wood 46
T2 construct: whole, on cells
Method: Briefly, S. aureus Wood 46 was grown in RPMI overnight, washed in PBS and adjusted to an OD₆₀₀ of 0.25. MaxiSorp 96 well microtiter plates were coated overnight with 100 μl of S. aureus culture per well. Plates were washed and blocked with 3% BSA. […] Anti-human HRP conjugated secondary antibody was added to washed plates. Luminescence reagents (SuperSignal Pico) were then added to the wells and signal was detected in a plate reader (Victor X3 plate reader, Perkin Elmer) immediately. Luminescence values were analyzed by a four-parameter logistic equation over a 7-point response curve (GraphPad Prism) to determine the binding EC₅₀, of the antibodies.

[5] = molecular target: T1, native human complement component C1q …; experiment: SPR Biacore, captured Ab, hC1q analyte, 25C
[6] = molecular target: T1, native human complement component C1q …; experiment: SPR Biacore, captured Ab, hC1q analyte, 37C
[7] = molecular target: T3, Recombinant bacterial IsdB expressed with a hexahistidine tag (IsdB-6xHis; REGN2655) (Staphylococcus aureus, UniProt A6QG30 42-613); experiment: SPR Biacore, captured Ab, IsdB-6xHis analyte, 25C
[8] = molecular target: T3, Recombinant bacterial IsdB expressed …; experiment: SPR Biacore, captured Ab, IsdB-6xHis analyte, 37C
[9] = molecular target: T1, native human complement component C1q …; experiment: SPR Biacore, captured Ab, hC1q analyte, 25C; 25 C; hC1q binding to the C1q arm of the bispecific antibody
[10] = molecular target: T1, native human complement component C1q …; experiment: SPR Biacore, captured Ab, hC1q analyte, 37C; 37 C; hC1q binding to the C1q arm of the bispecific antibody
[11] = molecular target: T1, native human complement component C1q …; experiment: competition ELISA, 6 nM biot-hC1q, competitor plate-coated hIgM
[12] = molecular target: T1, native human complement component C1q …; experiment: competition ELISA, 6 nM biot-hC1q, competitor plate-coated hIgG2-k
[13] = molecular target: T1, native human complement component C1q …; experiment: competition ELISA, 30 pM biot-hC1q, competitor plate-coated hIgG1-k
[14] = molecular target: T1, native human complement component C1q …; experiment: competition ELISA, 30 pM biot-hC1q, competitor plate-coated hIgG3-k

T1 sequence (P02745 23-245 limits assumed, chain 1 of 3): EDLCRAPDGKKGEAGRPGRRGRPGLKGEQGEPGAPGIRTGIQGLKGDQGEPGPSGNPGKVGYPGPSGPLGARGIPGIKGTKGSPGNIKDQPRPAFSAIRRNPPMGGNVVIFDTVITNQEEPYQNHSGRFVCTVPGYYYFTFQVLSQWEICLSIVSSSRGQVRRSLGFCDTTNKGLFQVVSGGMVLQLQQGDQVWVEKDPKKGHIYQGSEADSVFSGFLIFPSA
T1 sequence (P02746 28-253 limits assumed, chain 2 of 3): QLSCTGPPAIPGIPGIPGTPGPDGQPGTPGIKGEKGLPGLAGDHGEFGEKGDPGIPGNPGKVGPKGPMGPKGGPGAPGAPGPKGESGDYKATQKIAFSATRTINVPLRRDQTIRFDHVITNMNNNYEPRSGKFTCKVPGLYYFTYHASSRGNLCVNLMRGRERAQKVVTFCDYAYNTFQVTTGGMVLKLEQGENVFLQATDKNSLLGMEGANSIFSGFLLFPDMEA
T1 sequence (P02747 29-245 limits assumed, chain 3 of 3): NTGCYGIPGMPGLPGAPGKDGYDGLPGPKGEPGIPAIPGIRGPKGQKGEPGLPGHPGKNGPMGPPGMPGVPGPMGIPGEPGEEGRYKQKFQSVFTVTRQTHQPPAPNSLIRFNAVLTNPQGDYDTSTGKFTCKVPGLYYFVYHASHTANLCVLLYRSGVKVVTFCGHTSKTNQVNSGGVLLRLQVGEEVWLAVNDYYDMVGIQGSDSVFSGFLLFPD
T3 sequence (A6QG30 42-613, tags left off): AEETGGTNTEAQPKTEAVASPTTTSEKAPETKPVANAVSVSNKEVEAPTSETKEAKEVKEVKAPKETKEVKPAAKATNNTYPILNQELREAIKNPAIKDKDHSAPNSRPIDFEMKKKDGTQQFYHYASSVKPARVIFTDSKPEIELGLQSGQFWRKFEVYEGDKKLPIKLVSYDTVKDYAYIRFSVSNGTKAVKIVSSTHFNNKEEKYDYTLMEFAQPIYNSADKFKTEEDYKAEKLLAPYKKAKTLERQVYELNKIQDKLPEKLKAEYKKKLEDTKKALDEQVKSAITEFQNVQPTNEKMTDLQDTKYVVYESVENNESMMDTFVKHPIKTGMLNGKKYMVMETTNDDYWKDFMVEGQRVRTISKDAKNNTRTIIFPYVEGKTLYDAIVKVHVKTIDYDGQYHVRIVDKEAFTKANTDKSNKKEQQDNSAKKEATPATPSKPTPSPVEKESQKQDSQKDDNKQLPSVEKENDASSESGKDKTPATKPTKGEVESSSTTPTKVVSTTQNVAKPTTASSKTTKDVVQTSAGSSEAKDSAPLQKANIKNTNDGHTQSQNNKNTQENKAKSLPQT
T2 sequence (Q2FZF0 41-613): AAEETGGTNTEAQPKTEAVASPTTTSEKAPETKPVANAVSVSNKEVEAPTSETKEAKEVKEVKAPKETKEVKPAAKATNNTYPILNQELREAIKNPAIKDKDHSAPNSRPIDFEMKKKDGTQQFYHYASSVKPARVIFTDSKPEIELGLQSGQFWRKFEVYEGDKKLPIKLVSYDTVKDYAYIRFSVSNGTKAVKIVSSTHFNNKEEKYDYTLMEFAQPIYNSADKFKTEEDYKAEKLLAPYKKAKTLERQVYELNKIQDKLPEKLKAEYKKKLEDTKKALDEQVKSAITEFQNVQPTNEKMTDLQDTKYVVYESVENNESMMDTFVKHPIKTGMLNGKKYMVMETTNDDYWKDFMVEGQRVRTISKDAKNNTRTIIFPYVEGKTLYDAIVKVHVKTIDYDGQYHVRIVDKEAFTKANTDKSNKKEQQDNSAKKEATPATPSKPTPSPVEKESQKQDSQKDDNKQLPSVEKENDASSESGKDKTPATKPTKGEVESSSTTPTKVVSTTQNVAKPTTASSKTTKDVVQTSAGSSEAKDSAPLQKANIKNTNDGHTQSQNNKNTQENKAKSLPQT

B1: H1H20631D (bispecific antibody, V domains shown)
VH 1: EVQLVESGGGLVQPGRSLRLSCTTSGFTFDDYAMHWVRQVPGQGLEWVAGLSWNSDTIGYADSVKGRFTISRDNAKNSLYLQMKSLKAEDTALYYCTKDFYHSLNNWNYYYFDYWGQGTLVTVSS
VH 2: EVQLVESGGGVVQPGGSLRLSCAASGFSLDDYAMHWVRQTPGKGLEWVSLISGDGSRTSYADSVKGRFTISRDNSKNSLYLKMNSLRTEDTALYYCTKDPHNSNWFDPWGQGTLVTVSS
VL: not shown
notes: H1H = human IgG1 Fc; also called anti-IsdB x anti-C1q bispecific antibody
- Classical Pathway hemolysis assay % inhibition [1]: 100%
- Classical Pathway hemolysis assay IC50 [1]: 2.67 nM
- inhibition of CDC of Daudi cells, IC50 [M] [2]: > 1e-07 M
- inhibition of CDC of Daudi cells, Max % Inhibition [2]: 94%
- C1q deposition on S. aureus Cowan I EC50 [3]: 0.297 nM
- EC50 [4]: 1.26 nM
- t½ [5]: 7.01 min
- t1/2 [6]: 5.19 min
- Kd [7]: 2.36 nM
- t½ [7]: 42.8 min
- Kd [8]: 3.43 nM
- t1/2 [8]: 20.7 min
- Kd [9]: 0.228 nM
- Kd [10]: 0.193 nM

B2: H1H20635D (bispecific antibody, V domains shown)
VH 1: EVQLVESGGGLVQPGRSLRLSCTTSGFTFDDYAMHWVRQVPGQGLEWVAGLSWNSDTIGYADSVKGRFTISRDNAKNSLYLQMKSLKAEDTALYYCTKDFYHSLNNWNYYYFDYWGQGTLVTVSS
VH 2: EVQLVQSGAEVKKPGESLKIFCKGSGYSFINDWIGWVRQMPGKGLEWMGLIFPGDSDTRYSPVFQGHVTISADQSIDTAYLQWNSLKASDTAIYYCAVLRYWHFAIWGRGTLVTVSS
VL: not shown
notes: also called anti-IsdB x anti-C1q bispecific antibody
- Classical Pathway hemolysis assay % inhibition [1]: 97%
- Classical Pathway hemolysis assay IC50 [1]: 8.88 nM
- inhibition of CDC of Daudi cells, IC50 [M] [2]: 2.8e-08 M
- inhibition of CDC of Daudi cells, Max % Inhibition [2]: ≥ 99%
- C1q deposition on S. aureus Cowan I EC50 [3]: 0.425 nM
- EC50 [4]: 1.96 nM
- koff [5]: 0.00452 s⁻¹
- kon [5]: 1.46e+07 M⁻¹ s⁻¹
- t½ [5]: 2.56 min
- koff [6]: 0.0174 s⁻¹
- kon [6]: 2.41e+07 M⁻¹ s⁻¹
- t1/2 [6]: 0.66 min
- Kd [7]: 1.7 nM
- koff [7]: 0.000204 s⁻¹
- kon [7]: 120000 M⁻¹ s⁻¹
- t½ [7]: 56.6 min
- Kd [8]: 3.33 nM
- koff [8]: 0.00052 s⁻¹
- kon [8]: 156000 M⁻¹ s⁻¹
- t1/2 [8]: 22.2 min
- % Blockade with 600 nM bispecific Ab [11]: 93%
- IC50 [11]: 12 nM
- % Blockade with 600 nM bispecific Ab [12]: 84%
- IC50 [12]: 16 nM
- % Blockade with 30 nM bispecific Ab [13]: 87%
- % Blockade with 30 nM bispecific Ab [14]: 53%
- Kd [9]: 0.309 nM
- Kd [10]: 0.723 nM
